Results reported in the DeepSol protein solubility set.

Assay: soluble on expression in E. coli; label from the status in PepcDB or PDB records

Sequence	soluble on expression in E. coli
MQEIQLSPADDLQQALNNSQNGDVITLGPGSYFGNFIISNQVTLRSNNKGEAIIDSQGKGHGLWLKNSQITIENLTITNWGHDLTDQNSGIYSHGKIDNNKVPSLTIRNNILIGDGFGIWLNQADKAIISHNRVKGNLTLRSADRGNGIQVANVTNSHVFLNEVSETRDGVYVISSQNNIIEQNTMHHLRYGIHYMYSYDNTVKNNTAYDTRAGYALMSSRRLTITGNKTTNSEDYGFLLNFITQSTFSHNYVKNVWTKPENKVLGRDGKGLFVYNSGYNTVKHNIIDTAEIGIHLTAGSENIKIFGNSFINNPTQVKYVSNKKQEWSKDGRGNYWSNYLGWDMGNDGIGDTIFEPNDGIDKLVWQYPEMKMIMDSPAILILRWVQRQFPVLKPPGVKDSFPLMSAPSLTKNEQAATPLAVTTSTFTKSNSAQSANTTSASLKELEHHHHHH	not soluble
MQEKQLKTIQNKIASWIKEIESAFIDELFSKIGPSKMLRSKLMLALLNEKTDAILLDKAFNLCAIVEMIQTASLLHDDVIDKAAMRRKLPSINALFGNFNAVMLGDVFYSKAFFELSKMGESIAKSLSNAVLRLSRGEIEDVFVGGSFNSDKQKYWRILEDKTAHFIEASLKSMAILLNKDAKMYADFGLNFGMAFQIIDDLLDITQDAKTLGKPNFSDFKEGKTTLPYLLLYEKLNQRDQGLLISYFKQDSHEIIEWTKEKFKQYGTIEETLKIAQVYSKKALEAIKGENNLILEKLAQDVIYRTF	not soluble
MQENQQITKKEQYNLNKLQKRLRRNVGEAIADFNMIEEGDRIMVCLSGGKDSYTMLEILRNLQQSAPINFSLVAVNLDQKQPGFPEHVLPEYLEKLGVEYKIVEENTYGIVKEKIPEGKTTCSLCSRLRRGILYRTATELGATKIALGHHRDDILQTLFLNMFYGGKMKGMPPKLMSDDGKHIVIRPLAYCREKDIQRFADAKAFPIIPCNLCGSQPNLQRQVIADMLRDWDKRYPGRIETMFSAMQNVVPSHLCDTNLFDFKGITHGSEVVNGGDLAFDREEIPLQPACWQPEEDENQLDELRLNVVEVKLEHHHHHH	not soluble
MQERILFGTYTKKTSQGIYQGTLDTTAKTLTNDGLLAATQNPTYLALSAKDCLYSVDKEDDEGGIAAWQIDGQTAHKLNTVVAPGTPPAYVAVDEARQLVYSANYHKGTAEVMKIAADGALTLTDTVQHSGHGPRPEQDGSHIHYTDLTPDNRLAVIDLGSDKVYVYNVSDAGQLSEQSVLTMEAGFGPRHLVFSPDGQYAFLAGELSSQIASLKYDAQTGAFTQLGIVKTIPADYTAHNGAAAIRLSHDGHFLYVSNRGYNTLAVFAVTADGHLTLIQQISTEGDFPRDFDLDPTEAFVVVVNQNTDNATLYARDLTSGKLSLLQKDVTVPEGVCVRFLEHHHHHH	soluble
MQFERISTEQKKLSLIQTFLHQNALKLDEQIEYFVVGYNDNEQIVVCGGLAGNIIKCVAIDESLRGSGVALQLITELVDLAYTLKRPHLFIYTKPEYATLFKSCGFYIISDANPYVVLLENSATRLQKQCSLWEKMRVDGNRIGSIVMNANPFTLGHRYLIEQALQQCDHLHLFIVGEDASQFSYTERFEMIQQGIFDLSNITLHSGSDYIISRATFPNYFLKDQLITDESYFEIDLKLFRLHIAQALGITHRFVGTELNCPVTAEYNRQMHYWLMDAEMNAPKINVIEIPRKTASNHIISASTVRKHLAEKNWAQLAEFVPMTTLNYLQKCGRF	soluble
MQFIKNLQLNKKKDSDSSEQVLTNKKNKMKYEDFNFIRTLGTGSFGRVILATYKNGNYPPVAIKRFEKCKIIRQKQVDHVFSERKILNYINHPFCVNLHGSFKDDSYLYLVLEFVIGGEFFTFLRRNKRFPNDVGCFYAAQIVLIFEYLQSLNIVYRDLKPENLLLDKDGFIKMTDFGFAKIVETRTYTLCGTPEYIAPEILLNVGHGKAADWWTLGIFIYEILVGCPPFYANEPLLIYQKILEGIIYFPKFLDNNCKHLMKKLLSHDLTKRYGNLKKGAQNVKEHPWFSNIDWVNLLNKNVEVPYKPKYKNIFDSSNFERVQEDLTIADKITNENDPFYDW	not soluble
MQGFASQPESSYWYPETLLDWSPETDPDARFNRSSIPLREREVLYTVNDTQQTDAKLVALSALNPNTSGVPSQGGNEFFANTFGFWQYVDLMVYWAGSAGEGIITPPSGDVIDAAHRNGVPILGNVFFPPKVYGGQEEWVDKMLVRGEDGSFPAADKLLEVAEYYGFDGWFINQETEGGTPETAKDMQEFLLYLQENKPEGMHIMWYDSMISNGDIRWQNYLTDENAMFFQAGNRKVADSMFLNFWWWNHSQERSKQKAASLGRSPYDLYAGIDVEANGTNTYVNWQQVFPEGGEPHTSLGIYRPDWAFKSTDTMRDFYDREQLFWVGPSGNPAKVDEHAEWKGMATYFPEKTVINELPFVTHFNTGSGQFFAINGKTKLEHHHHHH	not soluble
MQGLTATLLPFGATLAKLTFPDKNGKNQDLVLGFDTIDEFEKDAASIGKTVGRVANRIKNSTLHFDGKQYTMTPNNGPHYLHGGPNGLGYRKWEVVRHAPESVSFSVRANEQDDGLPGDAKIDVTYTVNDRNQLIIEHHATCDTPGLLALTNHAYWNLDGSDTVAEHFLEMEADEFVEVDDTFCPTGAIRSVTDTGFDFRSGKQLKESGKDAEELLDLDNDLVITKKTP	not soluble
MQGMREIKRRIRSVKNTRQITKAMKMVAAAKLRRAQETAENARPYADKIKEVISSIAAGTKDFSHPMLEARPVKKTGYMVITSDRGLAGPYNANILRLVSKTIEERHQSKDEYVIFAVGRKGRDFFKKRGYPVVEEVTGISDTPSLTEIQDIAQSAIGMFADETFDKLTIFYNEFVSPIVQRPVEKQLLPLTSEEVLDGPVSAYEYEPDSESVLEVLLPKYAETLIYSALLDAKASEFGARMTAMGNATDNATEMLETLTLQFNRARQAAITQEIAEIVAGANALR	soluble
MQIAREETRKSGANILYVINHQRPSIFGSSMHQIGGLMLLSDSVVRNEGEGYPDSLLYDSGQRGKIGSRIKAPVHDLSFHFGPSTITNRTKGLSYSEQQLEKKLSNGLSFVLQYKCHPKGNLYGFGLIASRYEADITKKIEYQGIGFANRLDYIAPLFSMSTALSERWFLGMSFGKDGSQSVRLHYRFARLPVDRDLSAVGCVRKKSPHTDDCRLTVSPLYRPS	not soluble
MQIDVNVEVKEKPTGAVMFGAGYSNMEGLILSGSVAQDNIFGTGKFVNLMVNTGSVNKTYSLSYTDPYFTKDGVTAGLDLYKRVLNTRTLSSVMNFNTDTLGAGLRFGIPINENDSIMGGLGAEQTTIDLGPDSPQRNIDFVNKFGRTTINIPATLSWRRDGRDSAIWTTSGTTQRVFAEVGLPGGDLTYYKLSYDLRWYFPITEIFTLMLNGELGYGDGYSGKELPFFKNFFAGGNTSVRGYNISSLGPRDATNRTLGGNKRAVGNIEVLFPMPGMRNDRTVRLSAFLDGGTVWGPGGVRPDQEGLRYSAGIAVTWISPMGPLKISVAQPLNSQPGDNIQRFQFQFGQQFLEHHHHHH	not soluble
MQKDYQKLIVYLCDFLEKEVQKRGFKKVVYGLSGGLDSAVVGVLCQKVFKENAHALLMPSSVSMPENKTDALNLCEKFSIPYTEYSIAPYDAIFSSHFKDASLTRKGNFCARLRMAFLYDYSLKSDSLVIGTSNKSERMLGYGTLFGDLACAINPIGELFKTEVYELARRLNIPKKILNKPPSADLFVGQSDEKDLGYPYSVIDPLLKDIEALFQTKPIDTETLAQLGYDEILVKNITSRIQKNAFKLELPAIAKRFNPELEHHHHHH	soluble
MQKIGEWLKEHDVKVTTIYFGGGTPTSITAEEMDLLYEEMVRSFPDVKNIREITVEAGRPDTITEEKLAVLNKYDIDRISINPQSYENETLKAIGRHHTVEETIEKYHLSRQHGMNNINMDLIIGLPGEGVKEFRHSLSETEKLMPESLTVHTLSFKRASEMTRNKHKYKVAGREEVSQMMEDAVAWTKEHGYVPYYLYRQKNILGNLENVGYSLPGQESIYNIMIMEEVQTIIGIGCGAASKFIDRDTGKITHFANPKDPKSYNERFEHYTDEKIKYLEQIFEKTTKQHLEHHHHHH	not soluble
MQLKRVAEAKLPTPWGDFLMVGFEELATGHDHLALIFGDISGDKPVLSRVHSECLTGDALFSLRCDCGFQLEVALTRIAEEGRGVLIYHRQEGRNIGLLNKIRAYALQDLGADTVEANHQLGFAADERDFTLCSDMYKLLGIKAVRLLTNNPKKVEILTQAGINIVERVPLIVGENPKNEHYLATKAAKMGHLLTK	not soluble
MQMAGFGLIAKLRNKIRVKPNNKIQIGKNTRIRYCDIYVNGNNNQLIIHNGANLKGVSIELNGNNCLLEIGENCVIGENCFLSCRESGTKLVIGKECMFSRNVKLMTSDGHDILRDGKRINPAKSIYIGSHVWLADNVTILKGVDIGSGSIIGINSTVTKSIGQYCIAAGNPARKIKDNISWNTTLSY	not soluble
MQNDMSVVLRAGKLLIESGAEVYRVEDTMKHFAKALQIENFEAYVVSSSIIASGINRYGKQEAKVCNTDGVTANLGRLEAVNNLSRQIAKQDLVSPEEIVKQLDLIEHQKD	not soluble
MQNEGQYAEADALLLSLVAAKDAHLMGERTVLGLPRRLHAARLRLAKAEGDLVARIGYQYTLVPPPDMLAKYTQFSAEDRRMINRKSREDVPRLIHQIWIGEKAPPISVKAWAAHAARHGYDYRLWREADLEREGVFSNAIFNRMLSEGDYPGAVDVARYILLERFGGIYLDCDWYPARDDRSFDAFVPLAGLTAFDEKTPRDTGQGSMLLANSFIAAPAGHPVFRKMLDSFPGIIEEMPRAPAWWSTGPLIFTVIARAGSISLAPASFVAVTLADRAPLEEVEAIRRELATQDSGMLIAWKSWLEHHHHHH	soluble
MQNETRTLQLDPHLHIEAYRFKGIMQKFPNHFHDYYVIGFIEKGQRYLACQDQEYIINPGDLLLFNPRDTHSCEQIDGRTLDYRCINVMPDIMEKAVKEITGSGHLPYFSQHVLFRHELTASLQELHILISEEKQALRKEELFLHLLEELIRHYSDVTFLSSVPEPSDEVKMVCE	not soluble
MQNPFVPQLVYIEPRALEYPLGQELQDKFENMGIEIRETTSHNQVRNIPGKNHLQQYRNAKSTLVIGVRKTLKFDSSKPSAEYAIPFATGCMGHCHYCYLQTTMGSKPYIRTYVNVEEILDQADKYMKERAPEFTRFEASCTSDIVGIDHLTHTLKRAIEHFGQSDLGKLRFVTKFHHVDHLLDAKHNGKTRFRFSINADYVIKNFEPGTSPLDKRIEAAVKVAKAGYPLGFIVAPIYIHEGWEEGYRHLFEKLDAALPQDVRHDITFELIQHRFTKPAKRVIEKNYPKTKLELDEEKRRYKWGRYGIGKYIYQKDEEHALREALESYIDTFFPNAKIEYFT	not soluble
MQPYLIPQPGIRVSLSELIEMRHRVREVQLFSTPSRRSPLIGLHHSKLRGRGVDFDQVRVYQAGDDVRSIDWRVTARTQEPHTKLFHEERERPIFILVEQSRRLFFGSGLMFKSVLAAQAAALIGWAALEHNDRVGGLVFGDNEHYEIKPRRSKQSLLQLLNRLVRVNQSLHTEIPADRDAFGTALRRAREVLRPGSLVIVLCDERALSDVAEQQLSLLSRHSDLLLLPLSDPLDRALPAAGLLRFAERGAQLELDTLNPELRRAYRQQGEDRSARWELLAQKLRVLLMPLSTQSELVEQLREYLNAQRPVKRK	not soluble
MQQLKKIGFNEYEAKSYVSLVKQGPVTAYQVSKDSGVPRARIYEILGNLVEKGIVMKEEINDTTRYSPLPVEIFLQKAQSEWQSTYEGISDSLKKLETSEEKTDNRVITLKDNQTIISYCQALIKKAERRIVISMWDEMYEALKEDLSEVTDKVTIQGITLHVENPIKNLEAHRITPYTETLSTEHWFIVSIDSKEMIYGPSLAERNIAFYTDDPVHIYLLEDYVWHDVLVNRLVRRNQDDLQQWITAERKSFFMGK	not soluble
